In paper PMC6297355:

How the values were obtained:
[1] = target: BAG3^P209L (recombinant) (human) (UniProt O95817); assay: ITC; NBD (100 μM) in the syringe titrated into 10 μM BAG3 in the cell; 25 mM HEPES, 5 mM MgCl2, 100 mM KCl, pH 7.5; 25 °C; one-site binding model
[2] = target: BAG3^WT (recombinant) (human) (UniProt O95817); assay: as above
[3] = target: 5-carboxyfluorescein (5-FAM) labeled LVEALY tracer; assay: fluorescence polarisation (Δmp read-out, fluorescent peptide tracer); conditions: 30 µM BAG3P209L; 30 µM BAG3WT; parent: est. 2; read off a plot

BAG3^WT (recombinant) (human), sequence (O95817 whole entry): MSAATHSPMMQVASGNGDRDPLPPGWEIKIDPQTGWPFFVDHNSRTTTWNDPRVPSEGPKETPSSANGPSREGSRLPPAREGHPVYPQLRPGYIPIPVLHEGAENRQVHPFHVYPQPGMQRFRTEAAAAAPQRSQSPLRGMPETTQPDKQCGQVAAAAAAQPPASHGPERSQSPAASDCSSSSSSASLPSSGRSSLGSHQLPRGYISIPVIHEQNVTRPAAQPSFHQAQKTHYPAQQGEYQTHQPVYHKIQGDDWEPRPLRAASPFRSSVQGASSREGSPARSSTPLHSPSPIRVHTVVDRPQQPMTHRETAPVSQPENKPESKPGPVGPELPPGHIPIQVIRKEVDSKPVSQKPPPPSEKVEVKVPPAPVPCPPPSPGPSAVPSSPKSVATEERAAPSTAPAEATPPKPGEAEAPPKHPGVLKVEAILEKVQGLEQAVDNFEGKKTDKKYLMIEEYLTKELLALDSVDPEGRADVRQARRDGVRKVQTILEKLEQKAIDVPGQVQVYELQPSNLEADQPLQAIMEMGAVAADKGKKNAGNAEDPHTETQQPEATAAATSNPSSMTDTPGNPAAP
BAG3^WT (recombinant), O95817 P209L, sequence (O95817 whole entry P209L): as the sequence (O95817 whole entry) above, with P209L counted along it
BAG3^P209L (recombinant) (human), sequence (O95817 whole entry P209L): as the sequence (O95817 whole entry) above, with P209L counted along it

## HSPA8^NBD (nucleotide-binding domain of HSPA8) (domain or fragment)
[1]
  Kd: 300 nM
[2]
  Kd: 300 nM

## BAG3^WT (recombinant), O95817 P209L
[3]
  response: 54 Δmp
